Assay results from patent publication US20190175751A1 (UNIVERSITY OF UTAH RESEARCH FOUNDATION, published 2019).

Target: T1, FITC-HSA-MORF2 (human serum albumin grafted with multiple copies of morpholino MORF2, FITC-labelled) (human, UniProt P02768 25-609, a fraction of the amino groups converted with SM-(PEG)x to maleimido groups and carrying MORF2 via thioether bonds; FITC label)
T1 construct: mature; also called HSA-(MORF2)x; Nanoconjugate 2A
Test: confocal microscopy on CD20-expressing Raji cells, without Cy5-Fab′RTX-MORF1
Text: Thus, we conducted in vitro confocal microscopy study, using CD20-expressing human NHL Raji B cell line (FIG. 7).

binding result: no binding
B1: CD20 on human Burkitt's B-cell non-Hodgkin's lymphoma Raji cells (receptor, UniProt P11836 1-297, looked up)
chain: MTTPRNSVNGTFPAEPMKGPIAMQSGPKPLFRRMSSLVGPTQSFFMRESKTLGAVQIMNGLFHIALGGLLMIPAGIYAPICVTVWYPLWGGIMYIISGSLLAATEKNSRKCLVKGKMIMNSLSLFAAISGMILSIMDILNIKISHFLKMESLNFIRAHTPYINIYNCEPANPSEKNSPSTQYCYSIQSLFLGILSVMLIFAFFQELVIAGIVENEWKRTCSRPKSNIVLLSAEEKKEQTIEIKEEVVGLTETSSQPKNEEDIEIIPIQEEEEEETETNFPEPPQDQESSPIENDSSP
notes: whole, on cells; also called CD20 antigen; CD20 receptor
